Literature values as cited in publication PMC9966187.

- Kd (C-(IEELQAR) peptide): 35 µM
- Kd (C-(IELFQAR) peptide): 16 µM
Substance: E-selectin (from UniProt P16581)
